Measured values reported in the supplement of paper PMC11865577.

Experiments:
Assay in all cases: pull-down binding Z-score (relative to library population); higher = stronger binding
Conditions in all cases: RNA library: Library-2
[1] = tested on: TO-N3-2 (biotin conjugate)
In short: (§1)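 An RNA library (1 μg) carrying a Cy5 or Cy3 end label was heat-folded in phosphate/NaCl/KCl buffer, then incubated for 60 min at 25 °C with streptavidin beads loaded with 100 pmol of biotin-conjugated small molecule. The beads were washed three times, and bound RNA was released in hot SDS and hybridised to a DNA barcode microarray for 20 h at 55.5 °C. Each binding score was derived by subtracting the signal from beads without compound, averaging the barcoded replicate probes after removing the highest and lowest, and expressing the result as a Z-score relative to the library mean and standard deviation.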

[2] = tested on: TO-3-N3-2 (biotin conjugate)
In short: as §1

[3] = tested on: TO-3-N3 (biotin conjugate)
In short: as §1

TO-N3 (biotin conjugate) = tested on: TO-N3 (biotin conjugate)
In short: as §1

Row | Sequence | pull-down binding Z-score [1] | pull-down binding Z-score [2] | pull-down binding Z-score [3] | pull-down binding Z-score (TO-N3 (biotin conjugate))
1 | GCCACAAAGGC [IAV_invivo_PA_3_Motif_6+IAV_invivo_PA_3_Motif_6] | -0.964 | -0.685 | -0.745 | -1.13
2 | GCUAGCUCUUGGAGGUUCCGUGGCUAUAAAGAUAACAGAACAUUCUUGGAAUGCUGAUCUUUAUAAGCUCAUGGGACACUUCGCAUGGUGGACAGC | 0.936 | 0.121 | 0.837 | 0.974
3 | CAGGACACGAGUAACUCGUCUAUCUUCUG [SARS-CoV-2-Conserved-Structured-36_Interval-120-237_Motif_2] | 0.379 | -0.0048 | 0.225 | 0.324
4 | CCCAAGUCAUGAAGGAGAGGG [IAV_invivo_PA_3_Motif_13+IAV_invivo_PA_3_Motif_13] | 0.652 | 0.497 | 0.689 | 0.816
5 | UGUGGAAAGGGCUAUCAUCUUAUGUCCUUCCCUCA [DMSMaPseq_invitro_SARS-CoV-2_Motif_440] | -0.837 | -0.0817 | -0.089 | -0.154
6 | GAAAUACUUGUCACAUACAAUUGUUGUGAUGAUGAUUAUUUC | -1.14 | -0.399 | -1.15 | -1.39
7 | UGGAAUUGCAAUGUCGAUAGAUAUCCUGCUAAUUCCA | -0.0708 | 0.0197 | -0.0259 | 0.0215
8 | GGCUUCAUUUAAUUAUUUGAAGUC | -1.75 | -0.711 | -0.867 | -1.24
9 | GAAGGCUAUUUGAACUCUACUAAUGUCACUAUUGCAACCUACUGUACUGGUUCUAUACCUUGUAGUGUUUGUCUUAGUGGUUUAGAUUCUUU | -0.467 | -0.458 | -0.541 | -0.505
10 | AAGGGGGCCGUGGGGUGGGAGCUGGGGAA [G4_2A2_BCL2] | 4.88 | 9.67 | 8.07 | 6.6
11 | CGGGCUUAUGUUGCUCG | -0.956 | -0.43 | -0.429 | -0.791
12 | GACUACUAGCGUGCCUUUGUAAGCACAAGCUGAUGAGUACGAACUUAUGUACUCAUUCGUUUCGGAAGAGACAGGUACGUUAAUAGUU [SHAPE_invitro_SARS-CoV-2_Multi_71_ComplexLevel_1] | 0.672 | 0.392 | 0.389 | 0.649
13 | UCCCAUGAGGGG [IAV_invivo_HA_4_Motif_6+IAV_invivo_HA_4_Motif_6] | -1.39 | -0.725 | -0.753 | -1.28
14 | GCGCUGCCAGAAACUGGCUUUAGCGC [bulge-UUU] | -0.562 | -0.158 | -0.00635 | -0.24
15 | UACCGAUGCCAUAGAGGUG [IAV_invivo_PB1_2_Motif_30+IAV_invivo_PB1_2_Motif_30] | 0.166 | -0.0397 | -0.183 | -0.0495
16 | AAGGUAAAACCAACAGUGGUUGUUAAUGCAGCCAAUGUUUACCUU [DMSMaPseq_invitro_SARS-CoV-2_Motif_60] | -0.952 | -0.217 | -0.572 | -0.792
17 | GAAGAGGGAGCAAUUGUUGGCGAAAUUUCACCAUUGCCUUCUCUUC [IAV_invivo_NS1_NEP_8_Motif_10+IAV_invivo_NS1_NEP_8_Motif_10] | -0.213 | 0.262 | -0.045 | 0.0993
18 | UAGAUGCUGUAAAUUUACUUACUAAUAUGUUUACACCACUAAUUCAACCUAUUGGUGCUUUGGACAUAUCAGCAUCUA [DMSMaPseq_invitro_SARS-CoV-2_Multi_30_ComplexLevel_1] | -0.105 | -0.0621 | 0.39 | 0.0803
19 | GAUUAUUACAGAUC [DMSMaPseq_invitro_SARS-CoV-2_Motif_169] | -1.16 | -0.191 | -0.377 | -0.695
20 | GGGAGCAAACCC [IAV_invivo_PB1_2_Motif_31+IAV_invivo_PB1_2_Motif_31] | 0.11 | -0.259 | -0.179 | -0.425
21 | AUAAGAAAGACAAUUCUUAU [DMSMaPseq_invitro_SARS-CoV-2_Motif_114] | -1.45 | -0.3 | -0.755 | -1.07
22 | GUUCUCAGUACAGAGAAAUCUCCCUUUUGACAGAACAACCAUUAUGGCAGCAUUCAAUGGGAAUACAGAGGGGAGAACAUCUGACAUGAGGAC [IAV_invivo_NP_5_Motif_22+IAV_invivo_NP_5_Motif_22] | 1.23 | -0.129 | 0.104 | 1.12
23 | GACUUCAGUAACUCAGGUUCUGAUGUU | -0.704 | -0.426 | -0.751 | -0.829
24 | GGGCUCAGAAUAUGACUAUGUCAUAUUCACUCAAACCACUGAAACAGCUC [SHAPE_invitro_SARS-CoV-2_Motif_328] | -0.4 | 0.0239 | -0.515 | -0.428

Row | Sequence | pull-down binding Z-score [1] | pull-down binding Z-score [2] | pull-down binding Z-score [3] | pull-down binding Z-score (TO-N3 (biotin conjugate))
25 | GGGUUUACAAACAAUUUGAUACUUAUAACCU [DMSMaPseq_invitro_SARS-CoV-2_Motif_347] | -1.11 | -0.105 | -0.652 | -0.828
26 | AGUCCCUGUUGCUAUUCAUGCAGAUCAACUUACUCCUACUUGGCGUGUUUAUUCUACAGGUUCUAAUGUUUUUCAAACACGUGCAGGCUGUUUAAUAGGGGCU | -0.608 | -0.638 | -0.948 | -1.03
27 | UGAUGGUGUUCCAUUUGUAGUUUCAACUGGAUACCACUUCA [DMSMaPseq_invitro_SARS-CoV-2_Motif_261] | -0.82 | -0.236 | -0.0305 | -0.387
28 | GUCUUUCCAGGGGC [IAV_invivo_NP_5_Motif_23+IAV_invivo_NP_5_Motif_23] | -0.0606 | -0.414 | -0.313 | -0.393
29 | UAGCUGUACCCUAUAAUAUGAGAGUUAUACAUUUUGGUGCUGGUUCUGAUAAAGGAGUUGCACCAGGUACAGCUG | -0.588 | -0.121 | -0.371 | -0.515
30 | CUCCAGGAGGGG [IAV_invivo_PB2_1_Motif_10+IAV_invivo_PB2_1_Motif_10] | -0.309 | -0.312 | -0.481 | -0.668
31 | CAAGGCUAUUGAUGGUGGUGUCACUCGUGACAUAGCAUCUACAGAUACUUG [SHAPE_invivo_SARS-CoV-2_Motif_176] | 0.281 | -0.243 | -0.614 | -0.424
32 | UGCAGCAGAAACGCUCA [SHAPE_invitro_SARS-CoV-2_Motif_303] | 0.533 | 0.0228 | 0.273 | 0.371
33 | CCAUAAUGAAUCUGG [DMSMaPseq_invitro_SARS-CoV-2_Motif_27] | -0.529 | -0.198 | -0.322 | -0.345
34 | GUUGAUUUUUGUGGAAAGGGCUAUCAUCUUAUGUCCUUCCCUCAGUCAGC [SHAPE_invitro_SARS-CoV-2_Motif_447] | -0.89 | -0.325 | -1.02 | -1.18
35 | GUUAAAAAUCUGAAUUCUUCUAGAGUUCCUGAUCUUCUGGUCUAAAC | 0.13 | 0.157 | -0.557 | -0.527
36 | GUACUUGGUAGUUUAGCUGCCACAGUAC | -0.818 | -0.291 | -0.525 | -0.688
37 | AACGGGGCGGGCCCUGGGCGGGGUAA [G4_2A2_VEGF-Pu22-mt2] | 5.33 | 10.6 | 8.94 | 7.22
38 | CAUGCAAAUUACAUAUUUUGGAGGAAUACAAAUCCAAUUCAGUUGUCUUCCUAUUCUUUAUUUGACAUG | -0.803 | -0.152 | -0.857 | -1.08
39 | GCUGACACUACUGAUGCUGUCCGUGAUCCACAGACACUUGAGAUUCUUGACAUUACACCAUGUUCUUUUGGUGGUGUCAGU [SHAPE_invivo_SARS-CoV-2_Multi_58_ComplexLevel_1] | 0.237 | -0.3 | -0.0653 | 0.456
40 | CCGAAUACCAUAAUGAAUCUGGCUUGAAAACCAUUCUUCGUAAGGGUGGUCGCACUAUUGCCUUUGG [DMSMaPseq_invitro_SARS-CoV-2_Multi_5_ComplexLevel_1] | 0.178 | -0.063 | -0.576 | -0.257
41 | GUACAUACAGCUAAUAAAUGGGAUCUCAUUAUUAGUGAUAUGUAC | 0.426 | -0.167 | -0.823 | -0.621
42 | CAACUCUCAUGAAGUGUGAUCAUUGUGGUGAAACUUCAUGGCAGACGGGCGAUUUUGUUAAAGCCACUUGCGAAUUUUG | 0.0444 | -0.197 | -0.573 | -0.161
43 | GCGCUGCCAGAAACUGGCAAAGCGC [bulge-AA] | -0.0432 | -0.00126 | -0.184 | -0.403
44 | CGUGGUAUUCUUGCUAGUUACACUAGCCAUCCUUACUGCG | -0.427 | -0.37 | -0.913 | -1.1
45 | GGAGGAGGAGGAGGAGGAGGAGGAGGAGGAGGAGGAGGAGGAGGAGGA [G4_r(GGA)16] | 3.35 | 8.95 | 7.15 | 5.89
46 | GCGCGGCCAGAAACUGGCUGCGC [mismatch-GU] | -0.388 | 0.0256 | 0.969 | 0.831
47 | GCACAUAUAUCUACUAUUGGUGUUUGUUCUAUGACUGACAUAGCCAAGAAACCAACUGAAACGAUUUGUGC | 0.00798 | -0.32 | -0.793 | -0.457
